This passage reports fold higher binding affinity than the oligopeptide and Ka results from patent EP0733063B1.

“And” between values parts separate entries of the source, which are not always exact repeats. Equal values may be shown once.

The target in experiment [1] is purified monoclonal anti-hCG antibody (anti-hCG-A antibody, gift from Organon Technika). Kind of experiment: ratio of affinity constants of hCG and of the oligopeptide for the antibody.
For experiment [2] the target is unchanged. The experiment is described as follows: fluorescence anisotropy displacement, non-linear curve fitting by Equation (6), 6 C. Background: Polarisation of emitted light reports the rotation of a fluorescent probe.

For “human chorionic gonadotrophin (hCG), highly purified, intact (from UniProt P01215 25-116; P0DN86 21-165) (ligand)”, the fold higher binding affinity than the oligopeptide in experiment [1] is 300 fold and 500 fold. The Ka in experiment [2] is 9.4e+09 M⁻¹.
